Blank lines part the entries; values can stand above or below the binder they belong to.
How the values were obtained:
[1] = molecular target: T1, Calmodulin (CaM) (mammalian, UniProt P0DP23 1-149); experiment: co-expression in E. coli, GST pull-down and anion exchange chromatography
T1 construct: also called free CaM; CaM alone

[2] = molecular target: T1, Calmodulin (CaM); experiment: periplasmic-extract ELISA, 1:100 extract on 0.1 ug coated Ca2+CaM or apoCaM, anti-HA detection; positive above absorbance 2

binding result [1]: no binding
B1: CTNav1.9T (other)
chain: ENFNTATEESEDPLGEDDFDIFYEVWEKFDPEATQFIKYSALSDFADALPEPLRVAKPNKYQFLVMDLPMVSEDRLHCMDILFAFTARVLGGSDGLDSMKAMMEEKFMEANPLKKLYEPIVTTTKRKEEERGAAIIQKAFRKYMMKVTKGDQGDQNDLENGPHS
notes: range 1605-1768; GST tag cleaved

binding result [1]: no binding
B2: CTNav1.9FL (other)
chain: ENFNTATEESEDPLGEDDFDIFYEVWEKFDPEATQFIKYSALSDFADALPEPLRVAKPNKYQFLVMDLPMVSEDRLHCMDILFAFTARVLGGSDGLDSMKAMMEEKFMEANPLKKLYEPIVTTTKRKEEERGAAIIQKAFRKYMMKVTKGDQGDQNDLENGPHSPLQTLCNGDLSSFGVAKGKVHCD
notes: range 1605-1791; GST tag cleaved

binding result [2]: binds
B3: Nb26 (VHH)
VHH: QVQLQESGGGSVQAGGSLRLSCVASGRTFSSYAMAWFRQVPGKEREFVGRISRSGGSTMYADSVKGRFDISRDNAKNTVFLQMSSLKPEDTAVYYCAAKAAVILTGIPDYWGQGTQVTVSS
notes: pHEN4 clone, HA-tagged, periplasmic extract; also called family 4

From patent US20230406919A1 (Johns Hopkins, published 2023)
